{"source": "patent US11834472B2", "about": "“Anti-IL-22 antibodies, antibody fragments, their immunoconjugates and uses thereof” (BioAtla, Inc., priority 2018, dated 2023)", "molecules": {"B1": {"name": "hum10: parent humanized monoclonal antibody against human IL-22; light chain variable region SEQ ID NO: 19, heavy chain variable region SEQ ID NO:20 (antibody, V domains shown)", "VH": "QVQLVQSGAEVKKPGASVKVSCKASGYIFTSYWIHWIRQPPGKGLEWIGRIYPGTGNTYYNEKFKGRVTISADKSISTAYLQWSSLKASDTAMYYCARSYDSSCAYWGQGTLVTVSS", "VL": "AIQLTQSPSSLSASVGDRVTITCSASSSVSYMHWYLQKPGQSPQLLIYETSKLASGVPSRFSGSGSGTDFTFTISSLEAEDAATYYCQQWSSNPYITFGQGTKVEIKR", "modifications": "Synthetic sequence hum10-HC; Synthetic sequence hum10-LC"}}, "key": {"mIL22": {"molecular_target": "T1, mIL22 (Mus musculus, UniProt Q9JJY9)", "T1 sequence (Q9JJY9 34-179)": "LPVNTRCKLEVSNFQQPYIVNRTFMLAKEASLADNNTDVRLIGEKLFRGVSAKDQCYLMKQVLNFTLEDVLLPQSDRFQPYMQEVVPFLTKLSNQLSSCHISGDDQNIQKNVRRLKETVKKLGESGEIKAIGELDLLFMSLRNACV", "experiment": "Affinity ELISA mIL22", "format": "binding", "from_the_text": "The CPE™ library was screened for antibodies that were able to bind to both human IL-22 and mouse IL-22 with high affinity. Specifically, the CPE™ variants were screened by affinity ELISA for mouse IL-22 (mIL-22) binding affinity. The hum10 was included in every affinity ELISA plate as a control. The CPE™ variants with increased binding affinity to mIL-22 compared to hum10 were scored as primary CPE™ hits. The primary CPE™ hits were re-arrayed, re-transfected, and screened again by affinity ELISA and also by titration ELISA using both mIL-22 and human IL-22 (hIL-22) for antibodies that bind to both mIL-22 and hIL-22. These 10 mutant antibodies were selected based on ELISA data and sequence diversity, ability to scaled up and purified."}, "mouse IL-22 (mIL-22)": {"molecular_target": "T2, mouse IL-22 (mIL-22) (Mus musculus, UniProt Q9JJY9)", "T2 sequence (Q9JJY9 34-179)": "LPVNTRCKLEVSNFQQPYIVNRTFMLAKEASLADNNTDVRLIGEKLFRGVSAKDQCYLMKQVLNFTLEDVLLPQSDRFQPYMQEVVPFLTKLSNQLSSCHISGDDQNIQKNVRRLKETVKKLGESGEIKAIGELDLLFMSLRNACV", "experiment": "Inhibition of mIL-22 induced Stat3 phosphorylation in HepG2 cells", "format": "cell-based", "details": "mAb 6.7 nM", "experimental": "One of the immediate functions of IL-22 is inducing phosphorylation of Stat3, a protein in the signaling pathway of IL-22. The 10 antibodies of Table 1 were tested in a cell-based assay for blocking IL-22-dependent phosphorylation of Stat3 through human or mouse IL-22 in HepG2 cells. Antibody hum10 and mutant CPE-LC-E049K were used as controls. Four concentrations of each of the antibodies were used: 0.11 μg/mL, 0.33 μg/mL, 1 μg/mL, and 3 μg/mL.\n30,000 human HepG2 cells were seeded in 96 well plates and serum starved overnight. Three-fold dilutions of anti-IL-22 antibodies and control hum10 antibody at concentrations of 0.11 μg/mL, 0.33 μg/mL, 1 μg/mL, and 3 μg/mL were incubated with 200 ng/ml of hIL-22 or mIL-22 at 37° C. for one hour then added to the serum starved human HepG2 cells. The HepG2 cells were incubated with the antibody-IL-22 mixture at 37° C. for 20 minutes. After incubation, HepG2 cells were washed with PBS and lysed. Half of the cell lysate was used to determine the level of phosphorylated Stat3 using Cell Signaling kit #7300 following the vendor's protocol and the other half of the cell lysate was used to determine the level of total Stat3 by Western blot analysis using a Santa Cruz rabbit polyclonal antibody (Sc-7179) against human Stat3."}}, "data": [{"molecule": "B1", "values": [{"measurement": "Affinity ELISA mIL22 50% max signal mAb", "setting": "mIL22; first mIL22 line of Table 3", "result": "no binding"}, {"measurement": "Affinity ELISA mIL22 50% max signal mAb", "setting": "mIL22; second mIL22 line of Table 3", "result": "no binding"}, {"measurement": "STAT3 Phosphorylation; mIL22 % inhibition", "setting": "mouse IL-22 (mIL-22)", "result": "no inhibition"}]}]}
